Measured values: article PMC3869717, “The PCNA Interaction Protein Box Sequence in Rad54 Is an Integral Part of Its ATPase Domain and Is Required for Efficient DNA Repair and Recombination”

What was measured:
Rad54-AA = target: T1, Rad54-AA (Saccharomyces cerevisiae, UniProt P32863 1-898, Y494A;F495A); assay: EMSA (native PAGE); no ATP; equal to wild type; Buffer D: 40 mM Tris-HCl pH 7.8, 50 mM KCl, 1 mM DTT, 100 µg/ml BSA, 30 °C, 10 min; plasmid 30 µM nucleotides with 31.25-1000 nM protein; 49-mer 3 nM with 12.5-200 nM protein; conditions: protein: recombinant; blunt
T1 sequence: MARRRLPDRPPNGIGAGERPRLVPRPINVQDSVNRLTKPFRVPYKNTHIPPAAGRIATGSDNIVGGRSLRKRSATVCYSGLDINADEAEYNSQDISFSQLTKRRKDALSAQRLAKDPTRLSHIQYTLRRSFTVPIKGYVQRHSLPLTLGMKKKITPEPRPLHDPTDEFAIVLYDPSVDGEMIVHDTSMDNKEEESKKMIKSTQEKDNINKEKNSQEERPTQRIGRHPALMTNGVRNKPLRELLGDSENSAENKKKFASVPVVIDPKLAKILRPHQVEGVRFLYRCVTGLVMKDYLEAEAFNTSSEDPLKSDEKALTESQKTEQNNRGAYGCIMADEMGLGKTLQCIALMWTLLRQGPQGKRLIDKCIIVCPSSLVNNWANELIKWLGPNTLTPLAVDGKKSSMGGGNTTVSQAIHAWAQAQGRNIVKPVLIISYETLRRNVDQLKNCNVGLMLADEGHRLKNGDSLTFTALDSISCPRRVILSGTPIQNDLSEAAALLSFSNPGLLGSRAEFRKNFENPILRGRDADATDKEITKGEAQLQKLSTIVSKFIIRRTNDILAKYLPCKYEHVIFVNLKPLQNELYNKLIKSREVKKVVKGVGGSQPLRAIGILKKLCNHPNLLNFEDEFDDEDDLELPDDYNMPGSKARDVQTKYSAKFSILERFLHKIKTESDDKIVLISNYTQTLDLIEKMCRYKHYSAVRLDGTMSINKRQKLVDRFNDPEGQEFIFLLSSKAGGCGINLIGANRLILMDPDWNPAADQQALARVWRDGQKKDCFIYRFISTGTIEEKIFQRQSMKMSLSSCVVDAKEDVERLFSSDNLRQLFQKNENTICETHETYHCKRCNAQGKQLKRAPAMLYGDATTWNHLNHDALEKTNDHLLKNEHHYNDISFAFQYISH

Rad54 = target: T2, Rad54 (Saccharomyces cerevisiae, UniProt P32863 1-898); assay: EMSA (native PAGE); no ATP; Buffer D: 40 mM Tris-HCl pH 7.8, 50 mM KCl, 1 mM DTT, 100 µg/ml BSA, 30 °C, 10 min; plasmid 30 µM nucleotides with 31.25-1000 nM protein; 49-mer 3 nM with 12.5-200 nM protein; conditions: protein: recombinant; blunt
T2 sequence: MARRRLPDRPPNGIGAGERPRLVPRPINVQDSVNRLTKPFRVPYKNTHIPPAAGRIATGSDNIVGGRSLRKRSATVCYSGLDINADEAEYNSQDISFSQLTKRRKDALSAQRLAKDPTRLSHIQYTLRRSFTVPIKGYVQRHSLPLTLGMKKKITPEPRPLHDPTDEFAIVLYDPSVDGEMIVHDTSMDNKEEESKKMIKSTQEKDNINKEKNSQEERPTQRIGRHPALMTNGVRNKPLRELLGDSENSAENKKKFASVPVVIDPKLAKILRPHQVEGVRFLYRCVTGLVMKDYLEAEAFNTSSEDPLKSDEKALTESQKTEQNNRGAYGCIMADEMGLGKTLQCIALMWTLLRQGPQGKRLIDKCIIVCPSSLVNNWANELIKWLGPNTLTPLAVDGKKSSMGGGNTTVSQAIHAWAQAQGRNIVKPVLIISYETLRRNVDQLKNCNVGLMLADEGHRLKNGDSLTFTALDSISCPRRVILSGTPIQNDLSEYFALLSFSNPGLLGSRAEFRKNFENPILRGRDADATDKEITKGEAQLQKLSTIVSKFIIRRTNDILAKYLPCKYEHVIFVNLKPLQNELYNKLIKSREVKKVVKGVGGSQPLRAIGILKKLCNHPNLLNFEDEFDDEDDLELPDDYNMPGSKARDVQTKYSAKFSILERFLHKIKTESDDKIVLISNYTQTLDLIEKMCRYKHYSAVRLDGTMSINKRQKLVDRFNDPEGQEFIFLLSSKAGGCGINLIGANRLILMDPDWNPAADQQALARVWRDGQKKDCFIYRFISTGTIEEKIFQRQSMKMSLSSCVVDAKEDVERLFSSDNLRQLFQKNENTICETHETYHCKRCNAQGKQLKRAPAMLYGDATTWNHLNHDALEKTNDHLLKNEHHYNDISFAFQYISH

B1: dsDNA 49-mer (dsDNA)
DNA 1: AGCTACCATGCCTGCACGAATTAAGCAATTCGTAATCATGGTCATAGCT
DNA 2: AGCTATGACCATGATTACGAATTGCTTAATTCGTGCAGGCATGGTAGCT
binding result (Rad54-AA): binds
binding result (Rad54): binds
